Laboratory results taken from the nanobody polyreactivity screen of Harvey et al. (2022).

Experiment: yeast display, Sf9 membrane polyspecificity reagent, FACS + sequencing; frameworks hold sequencing errors
In short: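 A synthetic nanobody library was expressed on Saccharomyces cerevisiae BJ5465 by galactose induction for 36–48 hours. The library was stained for 1 hour at 4 °C with 10% biotinylated, detergent-solubilized Sf9 membrane reagent and enriched with streptavidin microbeads before FACS. Low and high (top ~1%) gates were set on anti-HA fluorescence for expression and streptavidin fluorescence for reagent binding, and each polyreactivity label reflects the gate of origin.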

Sequence	polyreactivity (PSR sort gate)
QVQLVESGGGLVQAGGSLRLSCAASGSTFFWYAMGWYRQAPGKEREFVAAITYRGGSTHYADSVKGRFTISRDNAKNTVYLQMNSLKPEDTAVYYCAARSLRYPYDYWGQGTQVTVSS	low polyreactivity
QVQLVESGGGLVQAGGSLRLSCAASGSTFFYNAMGWYRQAPGKERELVAAISKRGDRTYYADSVKGRFTISRDNAKNTVYLQMNSLKPEDTAVYYCAADSYSFSYYIEYDYWGQGTQVTVSS	high polyreactivity
QVQLVESGGGLVQAGGSLRLSCAASGSTFFYYAMGWSRQEPGKERELVASISSRGGSTYYADSVKGRFTISRDNAKNTVYLQMYSLKPEDTAVYYCAADLWAYGPLWRWSRADYDYWGQGTQVTVSS	low polyreactivity
QVQLVESGGGLVQAGGSLRLSCAASGSTFFYYAMGWYRQAPGKERELVARISGGGSTNYADSVKGRFTISRDNAKNTVYLQMNSLKPEDTAVYYCAADRYHYYRYSYGRYGYWGQGTQVTVSS	high polyreactivity
QVQLVESGGGLVQAGGSLRLSCAASGSTFGAYAMGWYRQAPGKEMELVAAISRRGGSTYYADSVKGRFTISRDNAKNTVYLQMNSLKPEDTAVYYCNAVGTRVDGEHYYWGQGTKVTVSS	high polyreactivity
QVQLVESGGGLVQAGGSLRLSCAASGSTFGAYAMGWYRQAPGKERELVAAISSSDGSTYYADSVKGRFTISRDTAKNTVYLQMNSLKPEDTAVYYCAAEYYSAVYIDEYWYDYWGQGTQVTVSS	high polyreactivity
QVQLVESGGGLVQAGGSLRLSCAASGSTFGDNAMGWYRQAPGKEREFVAAITTSGTSTYYADSVKGRFTISRDNAKNTVYVQMNSLKPEDTAVYYCAAYSRAAAGFYSSRRDYYWGQGTQVTVSS	low polyreactivity
QVQLVESGGGLVQAGGSLRLSCAASGSTFGDYAMGWFRQAPGKERELVAAMNSGDSRNYADSVKGRFTISRDNAKNTVYLQMNSLKPEDTAVYYCAAEPWSISYVYYKYKYESWGQGTQVTVSS	low polyreactivity
QVQLVESGGGLVQAGGSLRLSCAASGSTFGDYVMGWYRQAPGKERELVATITDSGGSTYYADSVKGRFTISRDNAKNTVYLQMNSLKPEDTAVYYCNKDFSVEVYDTAYNYYSYRYGYWGQGTQVTVSS	low polyreactivity
QVQLVESGGGLVQAGGSLRLSCAASGSTFGENAMGWYRQAPGKERELVAAISDSGGDTYYADSVKGRFTISRDNAKNTVYLQMNSLKPEDTAVYYCAADRYGYWYAYYSWGQGTQVTVSS	low polyreactivity
QVQLVESGGGLVQAGGSLRLSCAASGSTFGFNAMGWYRPAPGKEREFVAAINTSGGNTYYADSVKGRFTISRDNAKNTVYLQMNSLKPEDTAVYYCNAREGHLYGYPYGYWGQGTQVTVSS	low polyreactivity
QVQLVESGGGLVQAGGSLRLSCAASGSTFGFNAMGWYRQAPGKERELVAAITFSGGTTYYADSVKGRFTISRDNAKNTVYLQMNSLKPEDTAVYYCNADVKRDRVWGGDYWGQGTQVTVSS	low polyreactivity
QVQLVESGGGLVQAGGSLRLSCAASGSTFGFYDMGWYRQAPGKERELVAAITSGDITYADSVKGRFTISRDNAKNTVYLQMNSLKPEDTAVYYCATTSYGYWFGYIPEVDYWGQGTQVTVSS	low polyreactivity
QVQLVESGGGLVQAGGSLRLSCAASGSTFGFYTMGWYRQAPGKERELVAAISWSTGRTYYADSVKGRFTISRDNAKNTVYLQMNSLKPEDTAVYYCAARALDKYRFGGRYDYWGQGTQVTVSS	low polyreactivity
QVQLVESGGGLVQAGGSLRLSCAASGSTFGGNAMGWYRQAPGKEREFVAAISYSGGSTYYADSVKGRFTISRDNAKNTVYLQMNSLKPEDTAVYYCAATGEPPVFRNGYWGQGTQVTVSS	low polyreactivity
QVQLVESGGGLVQAGGSLRLSCAASGSTFGGNAMGWYRQAPGKERELVAAISSTGGSTYYADSVKGRFTISRDNAKNTVYLQMNSLKPEDTAVYYCAALYHWTYDYWGQGTQVTVSS	low polyreactivity
QVQLVESGGGLVQAGGSLRLSCAASGSTFGGNGMGWYRQAPGKEREFVATITWRSGSTYYADSVKGRFTISRDNAKNSVYLQMNSLKPEDSAVYYCAKYTSSRRNTWYYYWGQGTQVTVSS	high polyreactivity
QVQLVESGGGLVQAGGSLRLSCAASGSTFGGYAMGWNRQAPGKEREWVAAISQSGTRTYYADSVKGRFTISRDNAKNTVYLQMNSLKPEDTAVYYCAAVKRFRKYDYWGQGTQVTVSS	high polyreactivity
QVQLVESGGGLVQAGGSLRLSCAASGSTFGGYAMGWYRPAPGKERELVAAISGSGVRTYYADSVKGRFTISRDNAKNTVYLQMNSLKPEDTAVYYCAKRVRYPGDRYYYWGQGTQVTVSS	high polyreactivity
QVQLVESGGGLVQAGGSLRLSCAASGSTFGGYAMGWYRQAPGKERELVAAISGSGVRTYYADSVKGRFTISRDNAKNTVYLQMNSLKPEDTAVYYCAKRVRYPGDRYYYWGQGTQVTVSS	high polyreactivity
QVQLVESGGGLVQAGGSLRLSCAASGSTFGGYAMGWYRQAPGKERELVAAISKSGGSTYYADSVKGRFTISRDNAKNTVYLQMNSLKPEDTAVYYCNAPYKRSPYNYWGQGTQVTVSS	high polyreactivity
QVQLVESGGGLVQAGGSLRLSCAASGSTFGGYTMGGYRQAPGKERELVADITSSGSTNYADSLKGRFTISRDNAKNSVYLQMNSLKPEDTAVYYCAVRTYPGRFWYWGVDMVYWGQGTQVTVSS	low polyreactivity

Sequence	polyreactivity (PSR sort gate)
QVQLVESGGGLVQAGGSLRLSCAASGSTFGGYTMGWYRQAPGKERELVADITSSGSTNYADSLKGRFTISRDNAKNTVYLQMNSLKPEDTAVYYCAVRTYPGRFWYWGVDMDYWGQGTQVTVSS	low polyreactivity
QVQLVESGGGLVQAGGSLRLSCAASGSTFGHNAMGWYRQAPGKERELVAAIDSGDGTTYADSVKGRFTISRDNAKNTVYLQMNSLKPEDSAVYYWNVDLTTVGLWYYYRPGYDFWGQGTQVTVSS	low polyreactivity
QVQLVESGGGLVQAGGSLRLSCAASGSTFGHYAMGWSRQAPGKERELVARITSDDSTSYADSVKGRFTISRDNAKNTVYLQMNSLKPEDTAVDYCAARYYSYSWHPARYQGRYSWGQGTQVTVSS	high polyreactivity
QVQLVESGGGLVQAGGSLRLSCAASGSTFGHYAMGWYIQAPGKERELVAGITDTDNHELRRLCEGRFTISRDNAKNTVYLQMNSLKPEDTAVYYCNADDTYYPLCGITGYDYWGQGTQVTVSS	low polyreactivity
QVQLVESGGGLVQAGGSLRLSCAASGSTFGHYAMGWYRPAPGKERELVAGITDTDNHELRRLCEGRFTISRDNAKNTVYLQMNSLKPEDTAVYYCIADDTYYPLGGITGYDDWGQGTQVTVSS	low polyreactivity
QVQLVESGGGLVQAGGSLRLSCAASGSTFGINAMGWYRQAPGKERELVAAISRRGGSTYYADSVKGRFTISRDNAKNSVYLQMNSLKPEDTAVYYCAARYRNHQYDYWGQGTQVTVSS	high polyreactivity
QVQLVESGGGLVQAGGSLRLSCAASGSTFGINAMGWYRQAPGKERELVASITRRGGSTYYADSVKGRFTISRDNAKNTVYLQMNSLKPEDTAVYYCNKTYRYGTPLYDYWGQGTQVTVSS	high polyreactivity
QVQLVESGGGLVQAGGSLRLSCAASGSTFGINDMGWSRQAPGKEREFVAAISSTTDSTRYADSVKGRFTISRDNAKNTVYLQMNSLKPEDTAVYYCAAAPQFTFGVGYWGQGTQVTVSS	low polyreactivity
QVQLVESGGGLVQAGGSLRLSCAASGSTFGIYAMGWYRQAPGKERELVAAIRKNGGSTYYADSVKGRFTISRDNAKNTVYLQMNSLKPEDTAVYYCNADYWIYPSYDYWGQGTQVTVSS	low polyreactivity
QVQLVESGGGLVQAGGSLRLSCAASGSTFGIYAMGWYRQAPGKERELVAAISRSGDSTYYADSVKGRFTISRDNAKNTVYLQMNSLKPEDTAVYYCAADSFRLRYWAVTTHRVQYDYWGQGTQVTVSS	low polyreactivity
QVQLVESGGGLVQAGGSLRLSCAASGSTFGKNALGWYRQAPGKERELVAAITRRGGSTNYADSVKGRFTISRDNAKNTVYLQMNSLKPEDTAVYYCNAGYGYGYPKYDYWGQGTQVTVSS	high polyreactivity
QVQLVESGGGLVQAGGSLRLSCAASGSTFGKNAMGWYRPAPGKERELVAAITSSGGRTYYADSVKGRFTISRDNAKNTVYLQMNSLKPEDTAVYYCNAVTRRRSLGPWPVEYDYWGQGTQVTVSS	high polyreactivity
QVQLVESGGGLVQAGGSLRLSCAASGSTFGKYAMGWYRQAPGKERELVASISRSGASTYYADSVKGRFTISRDNAKNTVYLQMNSLKPEDTAVYYCNKARNPEGYWRYDYWGQGTQVTVSS	high polyreactivity
QVQLVESGGGLVQAGGSLRLSCAASGSTFGKYAMGWYRQAPGKERELVATITVSGGNTNYADSVKGRFTISRDNAKNTVYLQMNSLKPEDTAVYYCNAGGRYHAPSGDYWGQGTQVTVSS	low polyreactivity
QVQLVESGGGLVQAGGSLRLSCAASGSTFGLNTMGWYRQAPGKERELVAGITWSGGTTYYADSVKGRFTISRDNAKNTVYLQMNSLKPEDTAVSYCAAAVSDHYWYSRAYYYWGQGTQVTVSS	high polyreactivity
QVQLVESGGGLVQAGGSLRLSCAASGSTFGLYVMGWYRQAPGQERELVAAISRRGGSTYYADSVKGRFTSSRDNAKNTVYLQMNSLKPEDTAVYYCNTYYRGGPYDVAYDYWGQGTQVTVSS	high polyreactivity
QVQLVESGGGLVQAGGSLRLSCAASGSTFGNNAMGWYRQAPGKERELVATIDDTTVSTNYADSVKGRFTISRDNAKNSVYLQMNSLKPEDTAVYYCAADDVDGSPYDYWGQGTQVTVSS	low polyreactivity
QVQLVESGGGLVQAGGSLRLSCAASGSTFGPNAMGWYRQAPGKERELVAAINTRGGSTYYADSVKGRFTISRDNAKNTVYLQMNSLKPEDTAVYYCAAEYVVWYLDRFNYWGQGTQVTVSS	high polyreactivity
QVQLVESGGGLVQAGGSLRLSCAASGSTFGPNAMGWYRQAPGNERELVAAITWSGDSTYYADSVKGRFTISRDNAKNTVYLQMNSLKPEDTAVYYCNTDRNVWYAGYDYWGQGTQVSVSS	low polyreactivity
QVQLVESGGGLVQAGGSLRLSCAASGSTFGPYAMGWYRPAPGKERELVADITSSDGSTYYADSVKGRFTISRDNAKNSVYFHLNSLKREDTAVYYCNADYRYIWTYWGWTIYDYWGQGTQVTVSS	high polyreactivity
QVQLVESGGGLVQAGGSLRLSCAASGSTFGPYAMGWYRQAHGKVRELVAAITESGDSTYYADSVKGRFTISRDNAKNTVYLQMNSLKPEDTAVYYCAAEFYGDKMDYWGQGTQVTVSS	low polyreactivity
